Assay results reported in patent US20190322746A1 (TESARO, published 2019).

Target: T1, T Cell Immunoglobulin and Mucin Domain-3 (TIM-3) on circulating CD14+ monocytes of patients (human, UniProt Q8TDQ0 22-301)
T1 construct: whole, on cells; Endogenous receptor on peripheral blood monocytes of patients in a first-in-human study; also called HAVCR2; TIM-3 receptor
Test: flow cytometry receptor occupancy on circulating monocytes, whole blood of treated patients
Method: To measure binding in the RO assay, whole blood was collected from patients at baseline (Day 1 predose), 48 hours following the first dose (Day 3) and prior to the second dose (Day 15 predose) for the Q2W schedule. […] Samples for occupancy measurement on the Q3W schedule were collected as follows: Day 1 predose, Day 5, Day 15 and Day 22.
All samples were pre-dose, with occupancy measured after a single dose on day 1. The occupancy ratio (free TIM-3:total TIM-3) is determined at various time points (for example, timepoints can include day 1, day 3, day 15, day 22, and day 29).

B1: TSR-022 (antibody, human IgG4 S228P, kappa, V domains shown)
VH: EVQLLESGGGLVQPGGSLRLSCAAASGFTFSSYDMSWVRQAPGKGLDWVSTISGGGTYTYYQDSVKGRFTISRDNSKNTLYLQMNSLRAEDTAVYYCASMDYWGQGTTVTVSS
VL: DIQMTQSPSSLSASVGDRVTITCRASQSIRRYLNWYHQKPGKAPKLLIYGASTLQSGVPSRFSGSGSGTDFTLTISSLQPEDFAVYYCQQSHSAPLTFGGGTKVEIKR
notes: Humanized IgG4 (human IGHG4*01 scaffold) with a kappa light chain (IGKC*01); also called anti-TIM-3 antibody; exemplary anti-TIM-3 antibody
binding result: binds
